In patent US6861257B1, “Methods for isolation of osteoclast precursor cells and inducing their differentiation into osteoclasts” (Shionogi & Co., Ltd., priority 1998, dated 2005):
“Also recorded” adds a separate entry of the source.

Key:
preosteoclasts [1] = test: Induction of differentiation of preosteoclasts (from joint fluid of rheumatoid arthritis patients) into osteoclasts in the absence of accessory cells; format: cell-based; conditions: cytokine in place of human T-STIM in the medium, 37° C., 48-96 hours, no accessory cells
Description: The obtained cellular fraction was cultured in DMEM medium (Gibco BRL, #12430-21 or equivalent) supplemented with 10% (v/v) of fetal calf serum (FCS) in 5-7% CO2-containing air at 37° C. for several weeks. […]
Human T-STIM contains a variety of cytokines. In order to identify the cytokine which stimulates differentiation of preosteoclasts into osteoclasts, the differentiation was examined by modifycation the contents of Medium A described as previously in Example 1(3).
The following 16 kinds of medium (B-R) were prepared by using the cytokines shown below, alone or a mixture thereof, instead of human T-STIM contained in Medium A (Example 1(3)). […] Recombinant baculovirus containing the sequence was prepared to infect insect cells, then the recombinant eotaxin-3 protein was purified from the culture supernatant.)
The preosteoclasts obtained by Example 1(2) were cultured in the Medium […] described above at 37° C. for 48-96 hours.

preosteoclasts [2] = conditions: differentiation requiring the presence of accessory cells; cited from earlier work

GM-CSF: recombinant human GM-CSF (R & D Systems)
ability for inducing the differentiation of preosteoclasts (preosteoclasts [1]): have an ability for inducing the differentiation of preosteoclasts

IL-6: recombinant human IL-6 (R & D Systems)
ability for inducing the differentiation of preosteoclasts (preosteoclasts [1]): do not have an ability for inducing the differentiation of preosteoclasts; also recorded: does not effect to the differentiation | induction of the differentiation of preosteoclasts into osteoclasts (preosteoclasts [2]): induce the differentiation of preosteoclasts into osteoclasts

eotaxin: recombinant human eotaxin (R & D Systems)
ability for inducing the differentiation of preosteoclasts (preosteoclasts [1]): have an ability for inducing the differentiation of preosteoclasts

B1: eotaxin-3: human CC type chemokine, amino acid sequence SEQ ID No.:2; recombinant protein from baculovirus-infected insect cells (protein, listed as Homo sapiens)
chain: MMGLSLASAVLLASLLSLHLGTATRGSDISKTCCFQYSHKPLPWTWVRSYEFTSNSCSQRAVIFTTKRGKKVCTHPRKKWVQKYISLLKTPKQL
ability for inducing the differentiation of preosteoclasts (preosteoclasts [1]): have an ability for inducing the differentiation of preosteoclasts

B2: IL-4: recombinant human IL-4 (Genzyme) (protein, UniProt P05112 25-153, looked up)
Interleukin-4: HKCDITLQEIIKTLNSLTEQKTLCTELTVTDIFAASKNTTEKETFCRAATVLRQFYSHHEKDTRCLGATAQQFHRHKQLIRFLKRLDRNLWGLAGLNSCPVKEANQSTLENFLERLKTIMREKYSKCSS
ability for inducing the differentiation of preosteoclasts (preosteoclasts [1]): do not have an ability for inducing the differentiation of preosteoclasts

B3: IL-7: recombinant human IL-7 (Genzyme) (protein, UniProt P13232 26-177, looked up)
Interleukin-7: DCDIEGKDGKQYESVLMVSIDQLLDSMKEIGSNCLNNEFNFFKRHICDANKEGMFLFRAARKLRQFLKMNSTGDFDLHLLKVSEGTTILLNCTGQVKGRKPAALGEAQPTKSLEENKSLKEQKKLNDLCFLKRLLQEIKTCWNKILMGTKEH
ability for inducing the differentiation of preosteoclasts (preosteoclasts [1]): have an ability for inducing the differentiation of preosteoclasts

B4: M-CSF: recombinant human M-CSF (R & D Systems) (protein, UniProt P09603 33-554, looked up)
Macrophage colony-stimulating …: EEVSEYCSHMIGSGHLQSLQRLIDSQMETSCQITFEFVDQEQLKDPVCYLKKAFLLVQDIMEDTMRFRDNTPNAIAIVQLQELSLRLKSCFTKDYEEHDKACVRTFYETPLQLLEKVKNVFNETKNLLDKDWNIFSKNCNNSFAECSSQDVVTKPDCNCLYPKAIPSSDPASVSPHQPLAPSMAPVAGLTWEDSEGTEGSSLLPGEQPLHTVDPGSAKQRPPRSTCQSFEPPETPVVKDSTIGGSPQPRPSVGAFNPGMEDILDSAMGTNWVPEEASGEASEIPVPQGTELSPSRPGGGSMQTEPARPSNFLSASSPLPASAKGQQPADVTGTALPRVGPVRPTGQDWNHTPQKTDHPSALLRDPPEPGSPRISSLRPQGLSNPSTLSAQPQLSRSHSSGSVLPLGELEGRRSTRDRRSPAEPEGGPASEGAARPLPRFNSVPLTDTGHERQSEGSFSPQLQESVFHLLVPSVILVLLAVGGLLFYRWRRRSHQEPQRADSPLEQPEGSPLTQDDRQVELPV
ability for inducing the differentiation of preosteoclasts (preosteoclasts [1]): do not have an ability for inducing the differentiation of preosteoclasts; also recorded: does not effect to the differentiation | induction of the differentiation of preosteoclasts into osteoclasts (preosteoclasts [2]): induce the differentiation of preosteoclasts into osteoclasts

B5: IL-11: recombinant human IL-11 (R & D Systems) (protein, UniProt P20809 22-199, looked up)
Interleukin-11: PGPPPGPPRVSPDPRAELDSTVLLTRSLLADTRQLAAQLRDKFPADGDHNLDSLPTLAMSAGALGALQLPGVLTRLRADLLSYLRHVQWLRRAGGSSLKTLEPELGTLQARLDRLLRRLQLLMSRLALPQPPPDPPAPPLAPPSSAWGGIRAAHAILGGLHLTLDWAVRGLLLLKTRL
ability for inducing the differentiation of preosteoclasts (preosteoclasts [1]): do not have an ability for inducing the differentiation of preosteoclasts; also recorded: does not effect to the differentiation | induction of the differentiation of preosteoclasts into osteoclasts (preosteoclasts [2]): induce the differentiation of preosteoclasts into osteoclasts

B6: eotaxin-2: recombinant human eotaxin-2 (R & D Systems) (protein, UniProt O00175 27-119, looked up)
C-C motif chemokine 24: VVIPSPCCMFFVSKRIPENRVVSYQLSSRSTCLKAGVIFTTKKGQQFCGDPKQEWVQRYMKNLDAKQKKASPRARAVAVKGPVQRYPGNQTTC
ability for inducing the differentiation of preosteoclasts (preosteoclasts [1]): have an ability for inducing the differentiation of preosteoclasts
